The values below come from article PMC9583076.

The assay deals with Individual alanine mutations of these three residues (HTR2B S455, S456 and S457). The assay can be described thus: FRET or BRET.

N-terminal Venus-tagged β-arrestin-1, sequence (P49407 whole entry): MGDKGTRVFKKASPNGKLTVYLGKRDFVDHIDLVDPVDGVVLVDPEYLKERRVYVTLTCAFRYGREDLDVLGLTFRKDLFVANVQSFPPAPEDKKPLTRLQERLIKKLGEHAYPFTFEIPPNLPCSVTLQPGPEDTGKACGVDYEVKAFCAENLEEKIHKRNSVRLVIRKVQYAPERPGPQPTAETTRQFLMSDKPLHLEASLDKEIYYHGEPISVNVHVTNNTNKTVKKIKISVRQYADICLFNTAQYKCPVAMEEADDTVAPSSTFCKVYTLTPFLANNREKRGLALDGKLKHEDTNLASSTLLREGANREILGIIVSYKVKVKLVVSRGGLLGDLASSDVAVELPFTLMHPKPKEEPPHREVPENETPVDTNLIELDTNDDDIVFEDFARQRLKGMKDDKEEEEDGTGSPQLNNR

Regarding “N-terminal Venus-tagged β-arrestin-1 (from UniProt P49407 1-418) (natural protein)”, the reduction of Emax of β-arrestin-1 recruitment against WT was 30 to 50%.
